Results on four substances are retold here after patent publication US20240228645A1.

The target of test [1] is human BAFF-R expressed on cells (hBAFF-R-CHO isogenic CHO cells; BAFF-R+ cancer cells) (human) (UniProt Q96RJ3). Nature of the test: cell-based blocking assay; MFI of BAFF-biotin bound to CHO cells expressing human BAFF-R in the presence of the control antibody.
For test [2], the target named is PSR. As to the kind of experiment: PSR assay: antibody on Protein A coated beads, biotinylated PSR, SA-PE, flow cytometry; +PSR panel, other quadrants Q1 72.8, Q3 7.72E-3, Q4 0.29; without PSR Q2 0.
The target of test [3] is PSR. Nature of the test: PSR assay: antibody on Protein A coated beads, biotinylated PSR, SA-PE, flow cytometry; +PSR panel, other quadrants Q1 98.8, Q3 0, Q4 0.048.
Test [4] deals with hBAFF-R-hFc-His fusion protein (human) (UniProt Q96RJ3). As to the kind of experiment: yeast surface display flow cytometry, after challenge: 100 pM hBAFFR-Fc biotin for 1 hr at RT, then 1 mM (so in the source); paragraph 270 says 1 uM) nonbiotinylated hBAFFR-Fc, t = 120 min; other quadrants Q1 64.5, Q3 0.050, Q4 21.0. (In general: Flow cytometry measures light scatter and fluorescence of single cells or particles in a stream.)

Test [5] shares this target. As to the kind of experiment: yeast surface display flow cytometry, after challenge: 100 pM hBAFFR-Fc biotin, then 1 mM (so in the source); paragraph 270 says 1 uM) nonbiotinylated hBAFFR-Fc, t = 120 min.
Test [6] has the same target. Nature of the test: yeast surface display flow cytometry; hBAFF-R-hFc-His (concentration not given); other quadrants Q1 0.35, Q3 13.0, Q4 28.5.
For test [7] the target is unchanged. As to the kind of experiment: yeast surface display flow cytometry; hBAFF-R-hFc-His (concentration not given).
For test [8] the target is unchanged. Nature of the test: yeast surface display flow cytometry; hBAFF-R-hFc-His (concentration not given); other quadrants Q1 0.17, Q3 10.5, Q4 22.3.
The target is the same in test [9]. As to the kind of experiment: yeast surface display flow cytometry, before challenge: 100 pM hBAFFR-Fc biotin for 1 hr at RT; other quadrants Q1 44.1, Q3 9.77E-3, Q4 14.6.
The target is the same in test [10]. As to the kind of experiment: yeast surface display flow cytometry; hBAFF-R-hFc-His (concentration not given); other quadrants Q1 0.34, Q3 5.47, Q4 34.4.

For Human IgG1k (antibody), the Minimum (MFI) in [1] was 68000 MFI.

Ixekuzumab (antibody) displayed a Q2, percent of beads positive for FITC and for PSR binding (PE), +PSR in the test with PSR [2] of 27.1.

Take Trastuzumab (antibody): in the test with PSR [3], the Q2, percent of beads positive for FITC and for PSR binding (PE), +PSR is 1.18.

As for “ianalumab-based scFv benchmark control displayed on yeast”, the Q2, percent of events positive for scFv expression and for antigen binding, after challenge in [4] amounted to 14.4. In addition, the Iana (drawn gate), percent of events, after challenge in [5] is 0.13. For the same substance, the results for the Q2, percent of events positive for scFv expression and for antigen binding in test [6], in [8] and in test [10] were 58.2, 67 and 59.5, respectively. Also, in [7], the Gated lane, percent of events in the drawn gate was 0.3. Moreover, the Gated, percent of events in the drawn gate in test [7] worked out at 0.72. This substance came in with a Q2, percent of events positive for scFv expression and for antigen binding, before challenge in test [9] of 41.3.
